Data reported in article PMC12316982 (Nature Communications, 2025).

Key:
Test in all cases: ELISA
Conditions in all cases: both partners purified
[1] = target: stabilized neuraminidase protein (sNAp) of A/Michigan/45/2015 (MI15, H1N1) (Influenza A virus A/Michigan/45/2015 …, UniProt A0A0X9QTS2, stabilised)
[2] = target: stabilized neuraminidase protein (sNAp) of A/New Caledonia/20/1999 (NC99, H1N1) (Influenza A virus A/New …, UniProt Q7TG96, stabilised)
[3] = target: T1, NA of the influenza B-Victoria lineage virus B/Colorado/06/2017 (B/Vic CO17) (Influenza B virus B/Colorado/06/2017 …, UniProt A0A1X9RX69, strain)
T1 construct: not shown: His6, N-terminal, kept

Measured: binding result

B1: NCS.1 (human IgG1) (antibody, V domains shown)
VH: QVQLPESGPRLVKPSETLSLTCSVSGESISSGGYYWTWIRQHPGKGLEWIGNIFDTGSTHYSPSLKTRLTISIDTSKNQFYLRLNSATAADTAVYYCARVGYSLETDRPYYFGLDVWGQGTTVTVSS
VL: DIVMTQSPLSLPVTPGEPASISCRSSQSLLHSNGYTYLDWYLQKPGQSPQLLIYLASNRASGVPDRFSGSGSGTYFTLKISRVEAEDVGVYYCMQAVQTPWTFGQGTKVEIK
binds: all assays above

B2: NCS.1.3 (human IgG1) (antibody, V domains shown)
VH: QVQLQESGPRLVKPSETLSLTCSVSGESISSGGYYWTWIRQHPGKGLEWIGNIFDTGSTDYSPSLKTRLTISIDTSKNQFYLRLTSATAADTAVYYCARVGFSLETDRPYYLGLDVWGQGTTVTVSS
VL: DIVMTQSPLTLPVTPGEPASISCRSSQSLLHSNGYTYLDWYLQKPGQSPQLLIYFASNRASGVPDRFSGSGSGTYFTLKISRVEAEDVGVYYCMQAVQSPWTFGQGTKVEIK
binds: all assays above

B3: NCS.1.1 (human IgG1) (antibody, V domains shown)
VH: QVQLQESGPRLVKPSETLSLTCSVSGESISSGGYYWTWIRQHPGKGLEWIGNIFDTGSTDYSPSLKTRLTISIDTSKNQFYLRLNSATAADTAVYYCARVGFSLETDRPYYLGLDVWGQGTTVTVSS
VL: DIVMTQSPLSLPVTPGEPASISCRSSQSLLHSNGYTYLDWYLQKPGQSPQLLISFTSNRASGVPDRFSGSGSGTYFTLKISRVEAEDVGVYYCMQAVQTPWTFGQGTKVEIK
binds: all assays above
